Fewer inactive variants are shown than the library holds.
B1: TPR 5TU (parent)
chain: GGAUCUUCUCGAUCUAACAAAAAAGACAAAUCUGCCACAAAGCUUGAGAGCAUCUUCGGAUGCAGAGGCGGCAGCCUUCGGUGGCGCGAUAGCGCCAACGUUCUCAACUAUGACACGCAAAACGCGUGCUCCGUUGAAUGGAGUUUAUCAUG

Variants of: B1
Experiment: polymerase ribozyme fitness, log enrichment relative to wild type (log ratio); higher = more active; in vitro selection for triplet polymerase activity
Outline: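 Only genotypes with ≥10 input reads and ≥1 read per output were kept after Illumina sequencing of input and output libraries. These libraries were PCR-built, transcribed mutants of each subunit of a heterodimeric triplet polymerase ribozyme, each put through one triplicate in vitro selection round with frozen incubation at −7 °C, gel excision of extended constructs, streptavidin-bead capture and RT-PCR. Fitness is a logarithmic ratio of genotype enrichment to wild-type enrichment, from inverse-variance-weighted replicate averages, with the logarithm in base 2.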

Variant | polymerase ribozyme fitness (log ratio)
C32U C118U G133C | -2.99
U33G G86U | -3.95
C32G U44A G65A C85G | ≤ -4.2
C32U G59C A60C C63G C93A C99U A115G | ≤ -4.2
U33G G80C G92A C131A U151A | -4.15
C32U U61A G94C C105U A107U A110U | ≤ -4.2
C32G C54U A73C C79U C87G U145G | ≤ -4.2
C32U G46A A60U G83C C96A G141A | ≤ -4.2
C32U G65C U77A C87G U90C C114A U151A | ≤ -4.2
C32G U55A G58A G68A C85U G88C C93A A106G C116A U135A | ≤ -4.2
C32U U55G U61C G84U G100C | ≤ -4.2
U33G G67U C85G C96G A122G G140A | ≤ -4.2
C32G C87G U104G A110G A150U | ≤ -4.2
U33C C95U | -2.01
G34A U102G | ≤ -4.2
G34A G50C G92U | ≤ -4.2
C32A G83A G88C C116G G140C | -4.04
C32U G84A | -2.55
U33A U56A C75G G81U G83A U127A | ≤ -4.2
G34A C85U U101G | -3.5
C32G C57U C95U A142C U144G | ≤ -4.2

Variant | polymerase ribozyme fitness (log ratio)
C32A A41C C51U G58A C69U C93U C108U | ≤ -4.2
C32A U61A C63G A66U U77G | ≤ -4.2
C32U A37C G68A G80A C87U C95G | ≤ -4.2
C32U G59U G81A | -3.13
C32U G42A A60C A66G A73G C79A G84A C93U C96G A97U C103G | ≤ -4.2
G34A C57A C87U A89U G94U C96A U104A C105G A110U G126U | ≤ -4.2
C32G C43U C54U A73G U77G | ≤ -4.2
C32U C103U | -2.66
G34A C57G G117A U144A | -3.39
C32A C87U | -3.44
U33C C36A U55A G83A A89G A142U U148C | ≤ -4.2
C32G G48C U53C U82G | ≤ -4.2
C32A U45G G46A C99G C103G U127C U148G | ≤ -4.2
U33C U56C G59C C79A C95U C123A G140U | ≤ -4.2
C32G G70C | ≤ -4.2
G34C C87G U90G G92A U148A | ≤ -4.2
U33A G50C G81A C93G C96U A98G C103G G152U | ≤ -4.2
G34C A41G C54A U135C U145G | ≤ -4.2
C32G A37G C95U | -3.7
U33A G48A U78C G84A C105U | ≤ -4.2
C32A G74C G81C G94A A121U | -4.03

Variant | polymerase ribozyme fitness (log ratio)
G34A U56A G92C | -1.65
U33G A39C C54U | -3.84
G34A G117U A137C A142U | ≤ -4.2
G34A C57G A66U A115U U134C A142U U148G | -3.95
U33G U53A | -3.68
U33C G59A A60U U145G | -4
U33G G48A G59A G84A G88A C149U | ≤ -4.2
U33A G50C A52C C87A C96U C105U U127G U144A | ≤ -4.2
G34A U145A | -0.571
G34A A41G A120U | -1.2
C32U C43U G92A U146G | ≤ -4.2
U33G C35G A60G A107G | ≤ -4.2
C32G C85U | -3.86
C32G C85G | ≤ -4.2
U33G C85G G117C | ≤ -4.2
C32U A41C G58U A60C C75G C96U C114A | ≤ -4.2
G34A G74U G94A C116G | ≤ -4.2
G34A G84A U134G | -2.82
G34C A49C A52G U61G C87U C95A | -4.12
U33G G46A A49C U77C A98U C99U G152U | ≤ -4.2
C32A C38U G128C U135A | ≤ -4.2

Variant | polymerase ribozyme fitness (log ratio)
C32G A37G C38U U56A A119C | ≤ -4.2
U33A U44A G46U G59A C93G C103U U104A U135A C149G | ≤ -4.2
U33C G143C | ≤ -4.2
U33G G34U | ≤ -4.2
C32G A52U C99U A106G G124U C131A | ≤ -4.2
U33C C69U | -0.0558
U33C C85A | -3.61
G34U A37U U55A G136U | ≤ -4.2
C32G A41U A91U A107G C125G U135C | ≤ -4.2
G34A G67U U77C A89C U101G C116G U151C | ≤ -4.2
C32A U82C | ≤ -4.2
C32G G59C G71C C85A G88A U151A | ≤ -4.2
C32U U61G | -3.73
C32U U61C | -3.52
G34U A40G C69U G80U C99U A107G U139G G140U U148C | ≤ -4.2
C32G C51U G94U | ≤ -4.2
C32A C69G A98U | -1.51
U33C A40C G68U C95A U102C C132G | -3.48
C32A C75G G92A A150U | ≤ -4.2
C32G | -3.19
